Measurements as given in publication doi:10.1101/2024.05.27.596032 (bioRxiv, 2024).
Values joined by “and” are separate entries in the source; they are usually repeats but may differ in a detail not shown here. Identical values can stand only once. Like-named read-outs stand apart in the source and are kept apart here.

B1: Streptococcus pneumoniae NrdR (natural protein, Streptococcus pneumoniae TIGR4, UniProt P67318 1-157, looked up)
chain: MRCPKCGATKSSVIDSRQAEEGNTIRRRRECDECQHRFTTYERVEERTLVVVKKDGTREQFSRDKIFNGIIRSAQKRPVSSDEINMVVNRIEQKLRGRNENEIQSEDIGSLVMEELAELDEITYVRFASVYRSFKDVSELESLLQQITQSSKKKKER

Legend:
Experiment in all cases: SEC
[1] = biological target: Listeria monocytogenes NrdR (Listeria monocytogenes serotype 1/2a str, S10403S) (UniProt B8DHI6)
[2] = biological target: Listeria monocytogenes NrdR (Listeria monocytogenes serotype 1/2a str, S10403S) (UniProt B8DHI6); remark: listed apart in the source
[3] = biological target: Listeria monocytogenes NrdR (Listeria monocytogenes serotype 1/2a str, S10403S) (UniProt B8DHI6); remark: listed apart in the source
[4] = biological target: Listeria monocytogenes NrdR (Listeria monocytogenes serotype 1/2a str, S10403S) (UniProt B8DHI6); remark: listed apart in the source
[5] = biological target: Listeria monocytogenes NrdR (Listeria monocytogenes serotype 1/2a str, S10403S) (UniProt B8DHI6); remark: listed apart in the source
[6] = biological target: Listeria monocytogenes NrdR (Listeria monocytogenes serotype 1/2a str, S10403S) (UniProt B8DHI6); remark: listed apart in the source
SEC = biological target: the molecule itself

Row | Molecule | stoichiometry N [1] | stoichiometry N [2] | stoichiometry N [3] | stoichiometry N [4] | stoichiometry N [5] | stoichiometry N [6] | stoichiometry N (SEC)
1 | Listeria monocytogenes NrdR (from UniProt B8DHI6 1-154) (natural protein) | 4 | 2 | 8 | 4 | 4 | 4 | 
2 | B1 |  |  |  |  |  |  | 2 and 4
